In patent US20230183753A1, “Methods of in Vitro Cell Delivery” (Intellia Therapeutics, Inc., priority 2020, published 2023):
Oligonucleotides are written 5' to 3', each unit as a sugar letter and its base; * is a phosphorothioate linkage, no mark a phosphodiester; rarer units and linkages stand in square brackets, end groups in braces. Plain capitals give the bases only. m = 2'-O-methyl; r = 2'-OH (RNA)

Key:
[1] = test system: B2M, TRAC, TRBC1/2, CIITA; assay: NGS editing profile of T cells with BC22n or Cas9 mRNA, single or four guides, LNP titration, Example 16A; type: cell-based, human; conditions: LNP;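 note: activated T cells exposed to LNPs 72 h after activation, kept at 37 °C, harvested on day 10 post activation, editing measured by NGS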
Procedure: Cells were expanded in T cell basal media for 72 hours prior to LNP transfection.
LNPs were mixed to fixed total mRNA weight ratios of 6:3:2 for editor mRNA, guide RNA, and UGI mRNA respectively as described in Table 12. […] LNP mixtures were incubated for 5 minutes at 37° C. in T cell basal media substituting 6% cynomolgus monkey serum (Bioreclamation IVT, Cat. CYN220760) for fetal bovine serum.
T cells were incubated at 37° C. with 5% CO2 for the duration of the experiment.
In total, T cells were exposed to 6 different LNPs simultaneously (editor mRNA, UGI mRNA, 4 guides).

B2M, CD3, MHC II = assay: Flow cytometry of antigen negative T cells (B2M, CD3, MHC II) after BC22n or Cas9 editing, Example 16A; type: cell-based, human
Source text: Cells were subsequently washed, processed on a Cytoflex instrument (Beckman Coulter) and analyzed using the FlowJo software package. T cells were gated based on size, shape, viability, and antigen expression.

[2] = multiple guide delivery (four guides simultaneously), locus of the guide assayed, editor BC22n, total RNA 8.6 ng
[3] = multiple guide delivery (four guides simultaneously), locus of the guide assayed, editor BC22n, total RNA 17.2 ng
[4] = multiple guide delivery (four guides simultaneously), locus of the guide assayed, editor BC22n, total RNA 34.4 ng
[5] = multiple guide delivery (four guides simultaneously), locus of the guide assayed, editor BC22n, total RNA 68.8 ng
[6] = multiple guide delivery (four guides simultaneously), locus of the guide assayed, editor BC22n, total RNA 137.5 ng
[7] = multiple guide delivery (four guides simultaneously), locus of the guide assayed, editor BC22n, total RNA 275.0 ng
[8] = multiple guide delivery (four guides simultaneously), locus of the guide assayed, editor BC22n, total RNA 550.0 ng
[9] = multiple guide delivery (four guides simultaneously), locus of the guide assayed, editor Cas9, total RNA 8.6 ng
[10] = multiple guide delivery (four guides simultaneously), locus of the guide assayed, editor Cas9, total RNA 17.2 ng
[11] = multiple guide delivery (four guides simultaneously), locus of the guide assayed, editor Cas9, total RNA 34.4 ng
[12] = multiple guide delivery (four guides simultaneously), locus of the guide assayed, editor Cas9, total RNA 68.8 ng
[13] = multiple guide delivery (four guides simultaneously), locus of the guide assayed, editor Cas9, total RNA 137.5 ng
[14] = multiple guide delivery (four guides simultaneously), locus of the guide assayed, editor Cas9, total RNA 275.0 ng
[15] = multiple guide delivery (four guides simultaneously), locus of the guide assayed, editor Cas9, total RNA 550.0 ng
[16] = single guide delivery, editor BC22n, total RNA 8.6 ng
[17] = single guide delivery, editor BC22n, total RNA 17.2 ng
[18] = single guide delivery, editor BC22n, total RNA 34.4 ng
[19] = single guide delivery, editor BC22n, total RNA 68.8 ng
[20] = single guide delivery, editor BC22n, total RNA 137.5 ng
[21] = single guide delivery, editor BC22n, total RNA 275.0 ng
[22] = single guide delivery, editor BC22n, total RNA 550.0 ng
[23] = single guide delivery, editor Cas9, total RNA 8.6 ng
[24] = single guide delivery, editor Cas9, total RNA 17.2 ng
[25] = single guide delivery, editor Cas9, total RNA 34.4 ng
[26] = single guide delivery, editor Cas9, total RNA 68.8 ng
[27] = single guide delivery, editor Cas9, total RNA 137.5 ng
[28] = single guide delivery, editor Cas9, total RNA 275.0 ng
[29] = single guide delivery, editor Cas9, total RNA 550.0 ng

B1: G015995: guide targeting B2M (SEQ ID NO: 711) (nucleic acid)
guide: mU*mU*mA*rCrCrCrCrArCrUrUrArArCrUrArUrCrUrUrGrUrUrUrUrArGrAmGmCmUmAmGmAmAmAmUmAmGmCrArArGrUrUrArArArArUrArArGrGrCrUrArGrUrCrCrGrUrUrArUrCrAmAmCmUmUmGmAmAmAmAmAmGmUmGmGmCmAmCmCmGmAmGmUmCmGmGmUmGmCmU*mU*mU*mU
In the case of B1, the C-to-A/G % mean [1, 2] is reported as 3.8%, the C-to-T % mean [1, 2] is reported as 27.3% and the Indel % mean [1, 2] is reported as 2.6%. For the same molecule, the C-to-A/G % mean [1, 3] was 4.1%, the C-to-T % mean [1, 3] was 47.2% and the Indel % mean [1, 3] was 3.0%. It also gave a C-to-A/G % mean [1, 4] of 3.9%, a C-to-T % mean [1, 4] of 61.2% and an Indel % mean [1, 4] of 2.6%. The C-to-A/G % mean [1, 5] was 2.9%, the C-to-T % mean [1, 5] was 81.4% and the Indel % mean [1, 5] was 1.4%. It also gave a C-to-A/G % mean [1, 6] of 2.6%, a C-to-T % mean [1, 6] of 90.0% and an Indel % mean [1, 6] of 1.3%. It also gave a C-to-A/G % mean [1, 7] of 2.2%, a C-to-T % mean [1, 7] of 94.7% and an Indel % mean [1, 7] of 0.8%. The C-to-A/G % mean [1, 8] was 2.9%, the C-to-T % mean [1, 8] was 95.9% and the Indel % mean [1, 8] was 0.4%. It also gave a C-to-A/G % mean [1, 9] of 1.4%, a C-to-T % mean [1, 9] of 0.3% and an Indel % mean [1, 9] of 5.0%. The C-to-A/G % mean [1, 10] was 1.3%, the C-to-T % mean [1, 10] was 0.3% and the Indel % mean [1, 10] was 10.5%. For the same molecule, the C-to-A/G % mean [1, 11] was 1.1%, the C-to-T % mean [1, 11] was 0.3% and the Indel % mean [1, 11] was 19.3%. For the same molecule, the C-to-A/G % mean [1, 12] was 0.9%, the C-to-T % mean [1, 12] was 0.3% and the Indel % mean [1, 12] was 34.4%. It also gave a C-to-A/G % mean [1, 13] of 0.7%, a C-to-T % mean [1, 13] of 0.2% and an Indel % mean [1, 13] of 51.1%. The C-to-A/G % mean [1, 14] was 0.5%, the C-to-T % mean [1, 14] was 0.2% and the Indel % mean [1, 14] was 68.0%. It also gave a C-to-A/G % mean [1, 15] of 0.4%, a C-to-T % mean [1, 15] of 0.3% and an Indel % mean [1, 15] of 76.7%. The C-to-A/G % mean [1, 16] was 7.7%, the C-to-T % mean [1, 16] was 49.5% and the Indel % mean [1, 16] was 6.0%. The C-to-A/G % mean [1, 17] was 6.7%, the C-to-T % mean [1, 17] was 68.5% and the Indel % mean [1, 17] was 4.3%. The C-to-A/G % mean [1, 18] was 5.7%, the C-to-T % mean [1, 18] was 79.0% and the Indel % mean [1, 18] was 3.8%. For the same molecule, the C-to-A/G % mean [1, 19] was 4.6%, the C-to-T % mean [1, 19] was 88.2% and the Indel % mean [1, 19] was 2.5%. It also gave a C-to-A/G % mean [1, 20] of 4.1%, a C-to-T % mean [1, 20] of 90.6% and an Indel % mean [1, 20] of 2.2%. It also gave a C-to-A/G % mean [1, 21] of 3.7%, a C-to-T % mean [1, 21] of 92.6% and an Indel % mean [1, 21] of 2.2%. The C-to-A/G % mean [1, 22] was 2.8%, the C-to-T % mean [1, 22] was 95.2% and the Indel % mean [1, 22] was 1.6%. The C-to-A/G % mean [1, 23] was 1.2%, the C-to-T % mean [1, 23] was 0.3% and the Indel % mean [1, 23] was 23.7%. For the same molecule, the C-to-A/G % mean [1, 24] was 0.9%, the C-to-T % mean [1, 24] was 0.3% and the Indel % mean [1, 24] was 41.1%. For the same molecule, the C-to-A/G % mean [1, 25] was 0.6%, the C-to-T % mean [1, 25] was 0.3% and the Indel % mean [1, 25] was 59.4%. It also gave a C-to-A/G % mean [1, 26] of 0.4%, a C-to-T % mean [1, 26] of 0.2% and an Indel % mean [1, 26] of 76.8%. The C-to-A/G % mean [1, 27] was 0.2%, the C-to-T % mean [1, 27] was 0.1% and the Indel % mean [1, 27] was 88.2%. For the same molecule, the C-to-A/G % mean [1, 28] was 0.1%, the C-to-T % mean [1, 28] was 0.1% and the Indel % mean [1, 28] was 95.1%. For the same molecule, the C-to-A/G % mean [1, 29] was 0.1%, the C-to-T % mean [1, 29] was 0.1% and the Indel % mean [1, 29] was 97.5%. The “percent cells negative for antigen, B2M neg, Mean %” value (shortened to “percent cells negative … Mean %”) (B2M, CD3, MHC II; editor BC22n, total RNA 8.6 ng) was 44.0%, the “percent cells negative … Mean %” value (B2M, CD3, MHC II; editor BC22n, total RNA 17.2 ng) was 60.8% and the “percent cells negative … Mean %” value (B2M, CD3, MHC II; editor BC22n, total RNA 34.4 ng) was 75.7%. The “percent cells negative … Mean %” value (B2M, CD3, MHC II; editor BC22n, total RNA 68.8 ng) was 83.9%, the “percent cells negative … Mean %” value (B2M, CD3, MHC II; editor BC22n, total RNA 137.5 ng) was 91.2% and the “percent cells negative … Mean %” value (B2M, CD3, MHC II; editor BC22n, total RNA 275.0 ng) was 94.4%. For the same molecule, the “percent cells negative … Mean %” value (B2M, CD3, MHC II; editor BC22n, total RNA 550.0 ng) was 95.7%, the “percent cells negative … Mean %” value (B2M, CD3, MHC II; editor Cas9, total RNA 8.6 ng) was 13.9% and the “percent cells negative … Mean %” value (B2M, CD3, MHC II; editor Cas9, total RNA 17.2 ng) was 30.7%. The “percent cells negative … Mean %” value (B2M, CD3, MHC II; editor Cas9, total RNA 34.4 ng) was 53.4%, the “percent cells negative … Mean %” value (B2M, CD3, MHC II; editor Cas9, total RNA 68.8 ng) was 68.7% and the “percent cells negative … Mean %” value (B2M, CD3, MHC II; editor Cas9, total RNA 137.5 ng) was 82.1%. The “percent cells negative … Mean %” value (B2M, CD3, MHC II; editor Cas9, total RNA 275.0 ng) was 89.3% and the “percent cells negative … Mean %” value (B2M, CD3, MHC II; editor Cas9, total RNA 550.0 ng) was 91.3%.
